US20240016900

Molecular target: Human type I collagen, P02452
Sequence (P02452 162-1218, chain 1 of 2): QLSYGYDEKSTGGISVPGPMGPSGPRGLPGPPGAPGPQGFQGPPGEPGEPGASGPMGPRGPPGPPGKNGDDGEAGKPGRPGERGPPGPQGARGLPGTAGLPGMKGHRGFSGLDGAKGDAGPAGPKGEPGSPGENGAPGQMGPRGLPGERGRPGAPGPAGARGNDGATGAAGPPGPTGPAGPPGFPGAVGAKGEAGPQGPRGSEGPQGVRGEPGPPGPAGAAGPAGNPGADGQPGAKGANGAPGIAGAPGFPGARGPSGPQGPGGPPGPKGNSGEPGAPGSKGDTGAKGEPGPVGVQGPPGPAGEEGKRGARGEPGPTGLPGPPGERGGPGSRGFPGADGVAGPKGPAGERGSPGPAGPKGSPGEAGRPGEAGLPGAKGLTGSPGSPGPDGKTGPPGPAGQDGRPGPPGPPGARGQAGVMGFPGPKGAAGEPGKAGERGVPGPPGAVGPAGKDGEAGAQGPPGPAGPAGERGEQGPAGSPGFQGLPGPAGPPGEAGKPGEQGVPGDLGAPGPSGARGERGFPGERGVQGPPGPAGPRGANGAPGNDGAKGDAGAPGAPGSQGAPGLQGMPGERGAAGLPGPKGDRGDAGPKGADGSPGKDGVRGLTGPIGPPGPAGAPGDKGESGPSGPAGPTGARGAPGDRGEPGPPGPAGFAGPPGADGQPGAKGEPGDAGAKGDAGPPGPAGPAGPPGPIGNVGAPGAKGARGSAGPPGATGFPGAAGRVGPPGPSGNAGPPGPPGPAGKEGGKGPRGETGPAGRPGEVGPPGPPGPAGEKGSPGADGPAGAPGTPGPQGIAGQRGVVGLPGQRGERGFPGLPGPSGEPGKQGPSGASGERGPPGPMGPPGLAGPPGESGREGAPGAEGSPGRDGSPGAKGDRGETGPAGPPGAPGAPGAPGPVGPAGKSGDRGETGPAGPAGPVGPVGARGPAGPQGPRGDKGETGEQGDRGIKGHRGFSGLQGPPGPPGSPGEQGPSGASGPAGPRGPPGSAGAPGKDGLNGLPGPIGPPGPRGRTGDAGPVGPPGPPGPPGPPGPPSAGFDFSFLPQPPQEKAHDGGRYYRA
Sequence (chain, as listed by the source, chain 2 of 2): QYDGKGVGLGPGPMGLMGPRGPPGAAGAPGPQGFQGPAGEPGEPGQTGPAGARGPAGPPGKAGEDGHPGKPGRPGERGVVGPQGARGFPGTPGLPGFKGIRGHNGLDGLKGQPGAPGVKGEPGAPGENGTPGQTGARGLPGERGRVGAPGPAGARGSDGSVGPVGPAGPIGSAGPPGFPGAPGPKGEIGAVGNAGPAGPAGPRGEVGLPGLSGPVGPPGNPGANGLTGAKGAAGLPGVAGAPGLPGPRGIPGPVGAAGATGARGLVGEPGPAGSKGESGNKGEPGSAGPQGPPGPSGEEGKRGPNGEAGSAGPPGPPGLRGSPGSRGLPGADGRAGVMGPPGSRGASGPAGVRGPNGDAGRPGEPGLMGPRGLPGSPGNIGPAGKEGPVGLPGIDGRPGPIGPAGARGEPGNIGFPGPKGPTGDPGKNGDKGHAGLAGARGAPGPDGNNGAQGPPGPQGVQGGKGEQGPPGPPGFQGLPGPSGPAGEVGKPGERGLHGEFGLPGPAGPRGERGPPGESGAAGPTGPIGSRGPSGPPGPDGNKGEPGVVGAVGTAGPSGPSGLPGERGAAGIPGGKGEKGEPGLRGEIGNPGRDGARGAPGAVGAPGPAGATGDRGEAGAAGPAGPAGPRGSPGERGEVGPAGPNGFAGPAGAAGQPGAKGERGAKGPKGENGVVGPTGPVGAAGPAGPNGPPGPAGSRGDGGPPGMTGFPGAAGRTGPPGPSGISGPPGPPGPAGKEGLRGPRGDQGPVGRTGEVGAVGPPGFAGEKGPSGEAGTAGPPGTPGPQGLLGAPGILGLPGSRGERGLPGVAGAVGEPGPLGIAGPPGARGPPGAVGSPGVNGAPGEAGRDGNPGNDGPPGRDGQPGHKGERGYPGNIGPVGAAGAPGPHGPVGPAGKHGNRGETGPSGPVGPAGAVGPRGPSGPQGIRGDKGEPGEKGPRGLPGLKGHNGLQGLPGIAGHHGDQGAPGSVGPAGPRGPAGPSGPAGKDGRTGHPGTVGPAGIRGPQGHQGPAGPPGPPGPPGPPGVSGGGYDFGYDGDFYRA

B1: MMP1 (matrix metalloproteinase 1) (protein)
chain: FVLTEGNPRWEQTHLTYRIENYTPDLPRADVDHAIEKAFQLWSNVTPLTFTKVSEGQADIMISFVRGDHRDNSPFDGPGGNLAHAFQPGPGIGGDAHFDEDERWTNNFREYNLHRVAAHELGHSLGLSHSTDIGALMYPSYTFSGDVQLAQDDIDGIQAIYGRSQNPVQPIGPQTPKACDSKLTFDAITTIRGEVMFFKDRFYMRTNPFYPEVELNFISVFWPQLPNGLEAAYEFADRDEVRFFKGNKYWAVQGQNVLHGYPKDIYSSFGFPRTVKHIDAALSEENTGKTYFFVANKYWRYDEYKRSMDPGYPKMIAHDFPGIGHKVDAVFMKDGFFYFFHGTRQYKFDPKTKRILTLQKANSWFNCRKN
collagen fiber, fibril and network structure on a substrate, by atomic force microscopy: MMP-treated samples, however, showed a substantial amount of disorganized collagen and little remaining fiber/fibril formation | collagen fiber, fibril and network structure on a substrate, by scanning electron microscopy: MMP treatment of the substrate resulted in a readily observable amount of disruption of the collagen fibers, fibrils and network
